First the molecules themselves.
B1: Id_ii_S4_P5E.4_K5.3_C5.2_[C-2G]_[T-1C]_H5.3_A5.1_F5.1_T5.2_[T11A]_[A12T] (ssRNA)
RNA: UUUGACAACUGAUCGUUCUUUCUGCACACUUAUUAAUUUCUUUCUCGAUCAGUUGUCUUU
B2: Id_ii_S4_P5E.4_K5.3_C5.2_[C-2G]_H5.3_A5.1_F5.1_T5.2_[T11A]_[A12T] (ssRNA)
RNA: UUUGACAACUGAUCGUUCUUUCUGUACACUUAUUAAUUUCUUUCUCGAUCAGUUGUCUUU
B3: Id_ii_S4_P5E.4_K5.3_C5.2_[C-2T]_[T-1A]_H5.3_A5.1_F5.1_T5.2_[A12C] (ssRNA)
RNA: UUUGACAACUGAUCGUUCUUUCUUAACACUUAUUAUCUUCUUUCUCGAUCAGUUGUCUUU
B4: Id_ii_S4_P5E.4_K5.3_C5.2_[C-2G]_H5.3_A5.1_F5.1_T5.2_[A12C] (ssRNA)
RNA: UUUGACAACUGAUCGUUCUUUCUGUACACUUAUUAUCUUCUUUCUCGAUCAGUUGUCUUU
B5: Id_ii_S4_P5E.4_K5.3_C5.2_[T-1G]_H5.3_A5.1_F5.1_T5.2 (ssRNA)
RNA: UUUGACAACUGAUCGUUCUUUCUCGACACUUAUUAUAUUCUUUCUCGAUCAGUUGUCUUU
B6: Id_ii_S4_P5E.4_K5.3_C5.2_[C-2T]_H5.3_A5.1_F5.1_T5.2_[A12T] (ssRNA)
RNA: UUUGACAACUGAUCGUUCUUUCUUUACACUUAUUAUUUUCUUUCUCGAUCAGUUGUCUUU
B7: Id_ii_S4_P5E.4_K5.3_C5.2_[C-2G]_H5.3_A5.1_F5.1_T5.2_[A12T] (ssRNA)
RNA: UUUGACAACUGAUCGUUCUUUCUGUACACUUAUUAUUUUCUUUCUCGAUCAGUUGUCUUU
B8: Id_ii_S4_P5E.4_K5.3_C5.2_[C-2T]_[T-1A]_H5.3_A5.1_F5.1_T5.2 (ssRNA)
RNA: UUUGACAACUGAUCGUUCUUUCUUAACACUUAUUAUAUUCUUUCUCGAUCAGUUGUCUUU
B9: Id_ii_S4_P5E.4_K5.3_C5.2_H5.3_A5.1_F5.1_T5.2_[T11G]_[A12C] (ssRNA)
RNA: UUUGACAACUGAUCGUUCUUUCUCUACACUUAUUAGCUUCUUUCUCGAUCAGUUGUCUUU
B10: Id_ii_S4_P5E.4_K5.3_C5.2_[C-2A]_[T-1C]_H5.3_A5.1_F5.1_T5.2_[A12G] (ssRNA)
RNA: UUUGACAACUGAUCGUUCUUUCUACACACUUAUUAUGUUCUUUCUCGAUCAGUUGUCUUU
B11: Id_ii_S4_P5E.4_K5.3_C5.2_[C-2A]_H5.3_A5.1_F5.1_T5.2_[A12T] (ssRNA)
RNA: UUUGACAACUGAUCGUUCUUUCUAUACACUUAUUAUUUUCUUUCUCGAUCAGUUGUCUUU
B12: Id_ii_S4_P5E.4_K5.3_C5.2_[C-2T]_[T-1C]_H5.3_A5.1_F5.1_T5.2_[A12T] (ssRNA)
RNA: UUUGACAACUGAUCGUUCUUUCUUCACACUUAUUAUUUUCUUUCUCGAUCAGUUGUCUUU
B13: Id_ii_S4_P5E.4_K5.3_C5.2_[C-2T]_H5.3_A5.1_F5.1_T5.2_[T11A]_[A12T] (ssRNA)
RNA: UUUGACAACUGAUCGUUCUUUCUUUACACUUAUUAAUUUCUUUCUCGAUCAGUUGUCUUU
B14: Id_ii_S4_P5E.4_K5.3_C5.2_[C-2A]_H5.3_A5.1_F5.1_T5.2_[A12G] (ssRNA)
RNA: UUUGACAACUGAUCGUUCUUUCUAUACACUUAUUAUGUUCUUUCUCGAUCAGUUGUCUUU
B15: Id_ii_S4_P5E.4_K5.3_C5.2_[T-1C]_H5.3_A5.1_F5.1_T5.2_[A12G] (ssRNA)
RNA: UUUGACAACUGAUCGUUCUUUCUCCACACUUAUUAUGUUCUUUCUCGAUCAGUUGUCUUU
B16: Id_ii_S4_P5E.4_K5.3_C5.2_[C-2A]_[T-1A]_H5.3_A5.1_F5.1_T5.2 (ssRNA)
RNA: UUUGACAACUGAUCGUUCUUUCUAAACACUUAUUAUAUUCUUUCUCGAUCAGUUGUCUUU
B17: Id_ii_S4_P5E.4_K5.3_C5.2_[T-1C]_H5.3_A5.1_F5.1_T5.2_[T11C]_[A12T] (ssRNA)
RNA: UUUGACAACUGAUCGUUCUUUCUCCACACUUAUUACUUUCUUUCUCGAUCAGUUGUCUUU
B18: Id_ii_S4_P5E.4_K5.3_C5.2_H5.3_A5.1_F5.1_T5.2_[A12T] (ssRNA)
RNA: UUUGACAACUGAUCGUUCUUUCUCUACACUUAUUAUUUUCUUUCUCGAUCAGUUGUCUUU

This data set deals with T1, PUF4 RNA-binding domain (Saccharomyces cerevisiae, UniProt P25339 537-888).
T1 sequence: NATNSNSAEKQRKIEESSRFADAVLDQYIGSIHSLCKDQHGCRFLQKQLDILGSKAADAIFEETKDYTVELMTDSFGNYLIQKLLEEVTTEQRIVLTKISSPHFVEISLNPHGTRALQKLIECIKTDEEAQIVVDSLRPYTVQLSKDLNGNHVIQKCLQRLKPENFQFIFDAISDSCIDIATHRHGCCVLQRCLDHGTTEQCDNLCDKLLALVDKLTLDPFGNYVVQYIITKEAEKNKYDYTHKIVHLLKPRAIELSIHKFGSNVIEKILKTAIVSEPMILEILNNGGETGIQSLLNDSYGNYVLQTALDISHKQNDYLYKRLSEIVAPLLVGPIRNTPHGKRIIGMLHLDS
Briefly: Mg; RNA-MaP; 20 mM Na-HEPES pH 7.4, 30 mM KOAc, 0.75 mM MgCl2, 0.1% Tween-20, 5% glycerol, 0.1 mg/mL BSA, 2 mM DTT; 25 C; 0.0125-409.6 nM protein. As to conditions: tags: N-His6-TEV cleaved; C-SNAP kept, Cy3B-labelled; label: tethered on chip by stalled RNA polymerase.
For UCUCUUUCGUAUAUAUAUAUCUCUU (ssRNA) [Id_iii_S1_P3E.6_K3.2_C3.3_[T-1G]_H3.2_A3.1_F3.1_T3.2], the Kd came to 502 nM.
The result for UCUCUUUAUACACUAUAUAUCUCUU (ssRNA) [Id_iii_S1_P3E.7_K3.3_C3.3_[C-2A]_H3.3_A3.1_F3.1_T3.2] reads 31.6 nM.
Molecule UCUCUUACUUAUAUAUAUAUCUCUU (ssRNA) [Id_iii_S1_P3E.6_K3.2_C3.3_[T-3A]_H3.2_A3.1_F3.1_T3.2] had an equilibrium dissociation constant (Kd) of 113 nM.
UCUCUUGCUUAUAUAUAUAUCUCUU (ssRNA) [Id_iii_S1_P3E.6_K3.2_C3.3_[T-3G]_H3.2_A3.1_F3.1_T3.2] registered a dissociation constant Kd of 380 nM.
For the molecule UCUCUUUUUUGUAUAUAUAUCUCUU (ssRNA) [Id_iii_S1_P3E.5_K3.1_C3.3_[C-2T]_H3.1_A3.1_F3.1_T3.2], the Kd came out at 6.24 nM.
The molecule UCUCUUUUUACACUAUAUAUCUCUU (ssRNA) [Id_iii_S1_P3E.7_K3.3_C3.3_[C-2T]_H3.3_A3.1_F3.1_T3.2] returned a Kd of 2050 nM.
Consider UCUCUUUUUUAUAUAUAUAUCUCUU (ssRNA) [Id_iii_S1_P3E.6_K3.2_C3.3_[C-2T]_H3.2_A3.1_F3.1_T3.2], for which the affinity, expressed as Kd, was 486 nM.
The result for UCUCUUACUACACUAUAUAUCUCUU (ssRNA) [Id_iii_S1_P3E.7_K3.3_C3.3_[T-3A]_H3.3_A3.1_F3.1_T3.2] reads 900 nM; that for UCUCUUUGUAUUGUUAUCUCUU (ssRNA) [Ia_S1_P5E.1_K5.1_C5.1_H5.1_A5.1_[A7G]_F5.1_T5.1], 11.2 nM.
The result for UCUCUUUGUCCUAUUAUCUCUU (ssRNA) [Ib_S1_P5E.1_K5.1_C5.1_H5.1_[A4C]_A5.1_[T5C]_F5.1_T5.1] reads 79.5 nM; that for UCUCUUUGUGUAAUUAUCUCUU (ssRNA) [Ib_S1_P5E.1_K5.1_C5.1_H5.1_[A4G]_A5.1_[T6A]_F5.1_T5.1], 27.5 nM; that for UCUCUUUGUUCUAUUAUCUCUU (ssRNA) [Ib_S1_P5E.1_K5.1_C5.1_H5.1_[A4T]_A5.1_[T5C]_F5.1_T5.1], 31.7 nM.
The result for UCUCUUUCUUGUAUAUAUCUCUCUU (ssRNA) [Id_iii_S1_P3E.5_K3.1_C3.3_H3.1_A3.1_F3.1_T3.2_[A10C]] reads 6.06 nM.
UCUCUUUCUUGUAUAUAUUUCUCUU (ssRNA) [Id_iii_S1_P3E.5_K3.1_C3.3_H3.1_A3.1_F3.1_T3.2_[A10T]] gave a Kd of 6.04 nM.
UCUCUUUAUUAUAUAUAUAUCUCUU (ssRNA) [Id_iii_S1_P3E.6_K3.2_C3.3_[C-2A]_H3.2_A3.1_F3.1_T3.2]: the Kd was determined as 373 nM.
In turn, UCUCUUUCUUGUAUAUAUGUCUCUU (ssRNA) [Id_iii_S1_P3E.5_K3.1_C3.3_H3.1_A3.1_F3.1_T3.2_[A10G]] had a Kd of 7.51 nM.
With UCUCUUUGUUGUAUAUAUAUCUCUU (ssRNA) [Id_iii_S1_P3E.5_K3.1_C3.3_[C-2G]_H3.1_A3.1_F3.1_T3.2], the affinity, expressed as Kd, was 5.21 nM.
The result for UCUCUUUAUUGUAUAUAUAUCUCUU (ssRNA) [Id_iii_S1_P3E.5_K3.1_C3.3_[C-2A]_H3.1_A3.1_F3.1_T3.2] reads 9.45 nM; that for UCUCUUUCAUGUAUAUAUAUCUCUU (ssRNA) [Id_iii_S1_P3E.5_K3.1_C3.3_[T-1A]_H3.1_A3.1_F3.1_T3.2], 6.5 nM; that for UCUCUUUCUUAUAUAUAUGUCUCUU (ssRNA) [Id_iii_S1_P3E.6_K3.2_C3.3_H3.2_A3.1_F3.1_T3.2_[A10G]], 755 nM.
The result for UCUCUUUGUACACUAUAUAUCUCUU (ssRNA) [Id_iii_S1_P3E.7_K3.3_C3.3_[C-2G]_H3.3_A3.1_F3.1_T3.2] reads 1.32 nM.
In turn, B1 returned a Kd of 559 nM.
Take B2: the Kd worked out at 2.81 nM.
The molecule B3 had a Kd greater than 2300 nM.
For B4, binding was put at a Kd of 3 nM.
The result for B5 reads 1170 nM; that for B6, greater than 2300 nM; that for B7, 2.65 nM.
The result for B8 reads 893 nM.
The result for B9 reads greater than 2300 nM.
The molecule B10 returned a dissociation constant (Kd) greater than 2300 nM.
The result for B11 reads 467 nM; that for B12, greater than 2300 nM; that for B13, greater than 2300 nM.
The result for B14 reads 1530 nM.
The result for B15 reads greater than 2300 nM; that for B16, 845 nM; that for B17, greater than 2300 nM.
Molecule B18 registered a Kd greater than 2300 nM.
UCUCUUUCUUAUAUAUACAUCUCUU (ssRNA) [Id_iii_S1_P3E.6_K3.2_C3.3_H3.2_A3.1_F3.1_T3.2_[T9C]] gave a dissociation constant Kd of 972 nM.
In the case of UCUCUUCCUUGUAUAUAUAUCUCUU (ssRNA) [Ie_S1_P3E.2_K3.1_C3.2_[+-2C]_H3.1_A3.1_F3.1_T3.2], binding was put at a Kd of 6.23 nM.
UCUCUUCCUUAUAUAUAUAUCUCUU (ssRNA) [Id_iii_S1_P3E.6_K3.2_C3.3_[T-3C]_H3.2_A3.1_F3.1_T3.2] returned a Kd of 364 nM.
Molecule UCUCUUUCAACACUAUAUAUCUCUU (ssRNA) [Id_iii_S1_P3E.7_K3.3_C3.3_[T-1A]_H3.3_A3.1_F3.1_T3.2] came in with a Kd of 1700 nM.
The result for UCUCUUGCUUGUAAAUAUAUCUCUU (ssRNA) [Id_iii_S1_P3E.8_K3.4_C3.3_[T-3G]_H3.1_A3.2_F3.1_T3.2] reads 20.2 nM; that for UCUCUUUGUGUCAUUAUCUCUU (ssRNA) [Ib_S1_P5E.1_K5.1_C5.1_H5.1_[A4G]_A5.1_[T6C]_F5.1_T5.1], 30.7 nM.
On to UCUCUUUCUACACUAUAUUUCUCUU (ssRNA) [Id_iii_S1_P3E.7_K3.3_C3.3_H3.3_A3.1_F3.1_T3.2_[A10T]], for which the Kd amounted to 2010 nM.
For UCUCUUUGUUGUAUUAUCUCUU (ssRNA) [Ib_S1_P5E.1_K5.1_C5.1_H5.1_[A4T]_A5.1_[T5G]_F5.1_T5.1], the equilibrium dissociation constant (Kd) is 22.2 nM.
The result for UCUCUUACUUGUAUAUAUAUCUCUU (ssRNA) [Id_iii_S1_P3E.5_K3.1_C3.3_[T-3A]_H3.1_A3.1_F3.1_T3.2] reads 5.04 nM; that for UCUCUUUCCUGUAUAUAUAUCUCUU (ssRNA) [Id_iii_S1_P3E.5_K3.1_C3.3_[T-1C]_H3.1_A3.1_F3.1_T3.2], 4.14 nM; that for UCUCUUUCGUGUAUAUAUAUCUCUU (ssRNA) [Id_iii_S1_P3E.5_K3.1_C3.3_[T-1G]_H3.1_A3.1_F3.1_T3.2], 6.72 nM.
Take UCUCUUUCUACACUAUACAUCUCUU (ssRNA) [Id_iii_S1_P3E.7_K3.3_C3.3_H3.3_A3.1_F3.1_T3.2_[T9C]]: the Kd stood at 2260 nM.
For UCUCUUUCAUAUAUAUAUAUCUCUU (ssRNA) [Id_iii_S1_P3E.6_K3.2_C3.3_[T-1A]_H3.2_A3.1_F3.1_T3.2], binding was characterised by a dissociation constant (Kd) of 592 nM.

These data come from publication PMC9352680, “A comprehensive thermodynamic model for RNA binding by the Saccharomyces cerevisiae Pumilio protein PUF4”.
